Results on 3 molecules are retold here after publication PMC10128974, “Sulfonylpiperazine compounds prevent Plasmodium falciparum invasion of red blood cells through interference with actin-1/profilin dynamics” (PLOS Biology, 2023).

Experiment [1] concerns the target T1, PfACT1 with PfPFN (P. falciparum actin-1/profilin) (Plasmodium falciparum, UniProt Q8I2J4+Q8I4X0).
T1 construct: gene ACT1; PfACT1 from S. frugiperda Sf21 cells (baculovirus)
The experiment can be described thus: actin cosedimentation by ultracentrifugation, SDS-PAGE densitometry. The experiment is classed as biochemical. Conditions: 4 uM PfACT1, 16 uM PfPFN, 25 uM compound, 50 mM KCl, 4 mM MgCl2, 1 mM EGTA, 0.5 mM ATP, 2.5% DMSO, pH 7.5, about 22 C, 16 h, binding site not located. The source says:
actin cosedimentation by ultracentrifugation, SDS-PAGE densitometry on PfACT1 with PfPFN (P. falciparum actin-1/profilin) | S-W827, decreased the amount of actin in the pellet further to | All MMV291 analogues, S-MMV291, R-MMV291, S-W936, R-W936, S-W414, and S-W827, decreased the amount of actin

The target of experiment [2] is Plasmodium falciparum actin-1 (P. falciparum) (UniProt Q8I4X0).
Sequence of Plasmodium falciparum actin-1 (P. falciparum) (Q8I4X0 whole entry): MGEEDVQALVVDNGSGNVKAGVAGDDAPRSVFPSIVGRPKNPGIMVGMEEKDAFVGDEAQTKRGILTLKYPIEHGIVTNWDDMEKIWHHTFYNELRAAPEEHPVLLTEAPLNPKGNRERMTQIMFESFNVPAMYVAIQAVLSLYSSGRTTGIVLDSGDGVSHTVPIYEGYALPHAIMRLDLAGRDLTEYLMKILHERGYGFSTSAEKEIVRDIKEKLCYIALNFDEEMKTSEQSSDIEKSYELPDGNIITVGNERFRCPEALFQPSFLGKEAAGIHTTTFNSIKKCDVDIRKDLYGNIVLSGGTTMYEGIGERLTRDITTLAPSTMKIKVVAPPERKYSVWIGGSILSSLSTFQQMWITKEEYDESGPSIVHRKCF

T1 sequence (Q8I4X0 whole entry, one chain of several): as the sequence (Q8I4X0 whole entry) above

As for `CC(C(=O)N1CCCC1)N1CCN(S(=O)(=O)c2ccc(C(C)(C)C)cc2)CC1` (racemic) [S-MMV291], the “% PfACT1 in pellet at 25 uM” value in experiment [1] is 11 ± 1%.
Take `CC(C(=O)N1CCCC1)N1CCN(S(=O)(=O)c2ccc(C(C)(C)C)cc2)CC1` (racemic) [R-MMV291]: the “% PfACT1 in pellet at 25 uM” value in experiment [1] stood at 15 ± 2%.

B1: Plasmodium falciparum profilin (natural protein)
chain: MAEEYSWDSYLNDRLLATNQVSGAGLASEEDGVVYACVAQGEESDPNFDKWSLFYKEDYDIEVEDENGTKTTKTINEGQTILVVFNEGYAPDGVWLGGTKYQFINIERDLEFEGYNFDVATCAKLKGGLHLVKVPGGNILVVLYDEEKEQDRGNSKIAALTFAKELAESSQ
In experiment [2], B1 came in with a relative amount of PfACT1 (4 uM) in the pellet fraction of the sedimentation assay under polymerizing conditions with PfPFN (16 uM), DMSO of 21%; a relative amount of PfACT1 (4 uM) in the pellet fraction of the sedimentation assay with PfPFN (16 uM) and R-MMV291 (25 uM) of 15%; a relative amount of PfACT1 (4 uM) in the pellet fraction of the sedimentation assay with PfPFN (16 uM) and R-W936 (25 uM) of 10%; a relative amount of PfACT1 (4 uM) in the pellet fraction of the sedimentation assay with PfPFN (16 uM) and S-MMV291 (25 uM) of 11%. Moreover, in experiment [2], the relative amount of PfACT1 (4 uM) in the pellet fraction of the sedimentation assay with PfPFN (16 uM) and S-W414 (25 uM) worked out at 9%; the relative amount of PfACT1 (4 uM) in the pellet fraction of the sedimentation assay with PfPFN (16 uM) and S-W827 (25 uM) worked out at 5%; the relative amount of PfACT1 (4 uM) in the pellet fraction of the sedimentation assay with PfPFN (16 uM) and S-W936 (25 uM) came to 8%.
